Here are results for 26 sequences from the supplement of paper PMC9170038.

The data set relates to MS2 coat protein. Nature of the data set: apparent KD of MS2 coat protein; designed switch direction (-1 OFF switch, 1 ON switch): -1; higher = weaker reporter binding. Put shortly: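 The reported apparent KD is a per-design median over clusters, from curve fits of normalised cluster fluorescence. Protein titrations used SNAP-549-labelled MS2 coat protein, doubled from 0.7 or 1.5 nM to 3 µM, in Tris-HCl pH 7.5 buffer with KCl, MgCl2, BSA, DTT, tRNA and Tween-20, with no input, 200 uM small-molecule ligand, or an oligonucleotide input. The RNA switches were transcribed on Illumina chips by stalled E. coli RNA polymerase.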

The mark [1] stands for this setting: Eterna round: R95, input ligand: microRNA oligo, concentration not stated.
[2] abbreviates: Eterna round: R95, input ligand: FMN 200 uM.
Setting [3] is: Eterna round: R95, input ligand: none.
Setting [4] is: input ligand: microRNA oligo, concentration not stated.

Take “GACGUGUGAGGAUAUGCCGUGCCGGUCCGGAAGGUUCGGGUGCAGAAGGCACAUGAGGAUCACCCAUGUGUAAG [Excls4-VI] (puzzle: Exclusion 4)”: under setting [1], the “apparent KD of MS2 coat protein” value was 17.7 nM.
With “GACUGACAUGAGGAUCACCCAUGUAAGGAUAUAGGGAACGUCGUUCCGCAACCCGCGCCUAGAAGGUACAAGGU [EX1 C.11] (Eterna round: R97, puzzle: Exclusion 1)”, the “apparent KD of MS2 coat protein” value (input ligand: FMN 200 uM) worked out at 18.2 nM and the “apparent KD of MS2 coat protein” value (input ligand: none) came out at 16.1 nM.
“GACUGCCGAGGAUAUACAUGAGGAUCACCCAUGUGCUUCAGCAUUUUUUGAUGCAUGGGUAGAAGGCGGUAGUU [LRO-Excl3-15] (puzzle: Exclusion 3)”: the “apparent KD of MS2 coat protein” value under setting [1] is 341 nM.
Consider “GACUUCCGAGGAUAUACAUGAGGAUCACCCAUGUGCUUCAGCAUUUUUUGAUGCAUGGGUAGAAGGCGGUAGUU [LRO-Excl3-16] (puzzle: Exclusion 3)”, for which the “apparent KD of MS2 coat protein” value under setting [1] turned out to be 226 nM.
“GACUUCUCUGAGGAUAUUGCAUCAUACGAUAAAUAAGAAGGCAGAACAUGAGGAUCACCCAUGUGGGUUUUAAG [Bingo-Bango-33] (Eterna round: R97, puzzle: Exclusion 6)”: the “apparent KD of MS2 coat protein” value is 137 nM (input ligand: FMN 200 uM) and 104 nM (input ligand: none).
For the sequence “GACUUGUCAGGAUAUCUUACAUUUGCAUCGUAGUUACCGUUGGAGAAGGGACAUGAGGAUCACCCAUGUUUGGC [tap-tap-tappy24] (Eterna round: R97, puzzle: Exclusion 4)”, the “apparent KD of MS2 coat protein” value runs as follows: (input ligand: FMN 200 uM) 26.6 nM; (input ligand: none) 28.9 nM.
As for “GAGAAACAUGAGGAUCACCCAUGUGAGGAUAUGAGCACGCCGGUGACGGUGAUAAGAAUCAGAAGGCACAAAGG [Mat - Exclusion 1 - JL Mod - D33] (Eterna round: R97, puzzle: Exclusion 1)”, the “apparent KD of MS2 coat protein” value runs as follows: (input ligand: FMN 200 uM) 422 nM; (input ligand: none) 67.6 nM.
For the sequence “GAGAAACAUGAGGAUCACCCAUGUGAGGAUAUGAGCACGCCGGUGACGGUGAUAAGAAUCAGAAGGCACAUUAA [Mat - Exclusion 1 - JL Mod - D34] (Eterna round: R97, puzzle: Exclusion 1)”, the “apparent KD of MS2 coat protein” value is, setting by setting: (input ligand: FMN 200 uM) 95.7 nM; (input ligand: none) 38.8 nM.
Regarding “GAGAAACAUGAGGAUCACCCAUGUGAGGAUAUGCGUACGUUGUCCGUAGGCGACGUGCGCAGAAGGCGCAAAAG [Mat - Mod of JL D87] (puzzle: Exclusion 1)”, the “apparent KD of MS2 coat protein” value under setting [2] was 59 nM, the “apparent KD of MS2 coat protein” value under setting [1] stood at 53.5 nM and the “apparent KD of MS2 coat protein” value under setting [3] was found to be 96 nM.
As for “GAGAAACAUGAGGAUCACCCAUGUGAGGAUAUGCGUACGUUGUCCGUAGGCGACGUGCGCAGAAGGCGCAAAGG [Mat - Mod of JL D86] (puzzle: Exclusion 1)”, under setting [1], the “apparent KD of MS2 coat protein” value worked out at 54.2 nM.
As for “GAGAAAUUAUAGGAUAUCGUAAGGAUAAUUUAACGAGAAGGAUGAACAUGAGGAUCACCCAUGUGGUAUCAUGG [JL-ex6-3.12] (puzzle: Exclusion 6)”, the “apparent KD of MS2 coat protein” value amounted to 191 nM under setting [2], 184 nM under setting [1] and 465 nM under setting [3].
The matching figures for “GAGAACGUAGGAUAUACAUGAGGAUCACCCAUGUGAGGAAGGAGUAGGAAGCGUGGAAGUAGAAGGACGGAGAG [JR_Exclu3_Sub073] (puzzle: Exclusion 3)”: 57.6 nM, 40.6 nM and 24.5 nM.
Taken in the same sequence, the figures for “GAGAAGGUAGGAUAUACGAAUAAAUAGGGUAGUAAGAAGACACAUGAGGAUCACCCAUGUAGAAGGACCAAGAG [Mat - Exclusion 2 - Mod of my Tesla design - D37] (puzzle: Exclusion 2)” were 34.6 nM, 19.2 nM and 21.8 nM.
Take “GAGAAGUGAGGAUAUGCGGUAAGGAUGAAAGGAAGGAAUGAGUAGAAGGCACAUGAGGAUCACCCAUGUAGAGU [JR_Exclu4_Sub081] (puzzle: Exclusion 4)”: the “apparent KD of MS2 coat protein” value runs as follows: under setting [2], 19.5 nM; under setting [1], 18.5 nM; under setting [3], 21.1 nM.
Regarding “GAGAUGUGAGGAUAUCUAGACCAUGGAAAAGCCACGGUCCGAGAGAAGGCACAUGAGGAUCACCCAUGUGAUGA [Quedte] (puzzle: Exclusion 4)”, under setting [1], the “apparent KD of MS2 coat protein” value is 43.7 nM.
Same read-out and setting: with “GAGAUGUGAGGAUAUCUAGACCGCGGCAGAGCUGCGGUCCGAGAGAAGGCACAUGAGGAUCACCCAUGUGAUGA [Beriesan] (puzzle: Exclusion 4)” the figure was 47.3 nM.
In the case of “GAGCACUGCCGAGGAUAUCCACAUGAGGAUCACCCAUGUAGUGAAAAGUCCCAGUAGAACCAAAUGGAGAAGGUGGCAAGAUAU [Eternabot solution 21] (Eterna round: R96, puzzle: Exclusion NG 2)”, the “apparent KD of MS2 coat protein” value came out at 23.2 nM (input ligand: FMN 200 uM), 20 nM under setting [4] and 17.9 nM (input ligand: none).
For “GAGCCAUCGUGAGAUGGCUCAAUUACAUGAGGAUCACCCAUGUAGGAUAUCGAUUGCUUUGCAGUCGAGAAGGACAUGUUUAAU [JL ENG3 3.00] (Eterna round: R96, puzzle: Exclusion NG 3)”, the “apparent KD of MS2 coat protein” value (input ligand: FMN 200 uM) worked out at 67.4 nM, the “apparent KD of MS2 coat protein” value under setting [4] came to 25.8 nM and the “apparent KD of MS2 coat protein” value (input ligand: none) came to 30.3 nM.
Turning to “GAGCUAUGAGGAUAUGCAUAGAUACGGAUUCGUGUAGUACUACAUGAGGAUCACCCAUGUAGAAGGCGUGGCUG [JL-ex2-2.02 mat747 mod] (puzzle: Exclusion 2)”, the “apparent KD of MS2 coat protein” value under setting [1] amounted to 15.4 nM.
For “GAGCUAUGAGGAUAUGCAUAUAUACGGAUUCGUGUAGUACUACAUGAGGAUCACCCAUGUAGAAGGCGUGGCUG [JL-ex2-2.03 mat747 mod] (puzzle: Exclusion 2)”, the “apparent KD of MS2 coat protein” value under setting [1] stood at 13.2 nM.
Regarding “GAGCUAUGAGGAUAUGCAUAUAUACGGAUUCGUGUGGUACUACAUGAGGAUCACCCAUGUAGAAGGCGUGGCUG [JL-ex2-2.04 mat747 mod] (puzzle: Exclusion 2)”, the “apparent KD of MS2 coat protein” value under setting [1] stood at 16.2 nM.
In the case of “GAGGAACAUGAGGAUCACCCAUGUAAGGAUAUGCAAAGAGAGAAAGAAGAAGGAGAAAGCAGAAGGUACAAGGA [JR_Exclu1_Sub073] (puzzle: Exclusion 1)”, the “apparent KD of MS2 coat protein” value was 42.7 nM under setting [2], 35.1 nM under setting [1] and 54.2 nM under setting [3].
Regarding “GAGGAACAUGAGGAUCACCCAUGUAAGGAUAUGCAAAGAGAGGUAGUAGAAGGAGAAGGCAGAAGGUACAAGGA [JR_Exclu1_Sub074] (puzzle: Exclusion 1)”, the “apparent KD of MS2 coat protein” value under setting [2] is 47.7 nM, the “apparent KD of MS2 coat protein” value under setting [1] came to 36.1 nM and the “apparent KD of MS2 coat protein” value under setting [3] amounted to 50 nM.
Take “GAGGACUUAGGAUAUACAUGAGGAUCACCCAUGUCCCUAAGCAUGCGACAGCCCUCGAGUAGAAGGGAGGACCA [Eternabot (Original) Solution 3] (Eterna round: R97, puzzle: Exclusion 3)”: the “apparent KD of MS2 coat protein” value by setting is: (input ligand: FMN 200 uM) 14.8 nM; (input ligand: none) 14.7 nM.
Turning to “GAGGAGCAAGGAUAUACGAGGAUAUGGUAGUUUGUAGAGUGACAUGAGGAUCACCCAUGUAGAAGGUGCGAGGG [JR_Exclu2_Sub099] (puzzle: Exclusion 2)”, under setting [1], the “apparent KD of MS2 coat protein” value turned out to be 41.7 nM.
As for “GAGGCAUGCCGAGGUCCACACAUGAGGAUCACCCAUGUCAUGACAGGCUUUUUACUCGUUUUAUCGCUAUCGCGUUC [Vebizaledi] (puzzle: Sensor v3, turn-off variant 1)”, the “apparent KD of MS2 coat protein” value under setting [2] is 84.8 nM, the “apparent KD of MS2 coat protein” value under setting [1] amounted to 159 nM and the “apparent KD of MS2 coat protein” value under setting [3] is 70.7 nM.
